Assay results from PMC3642240, “Cloning, Expression and Characterization of 3-Hydroxyisobutyrate Dehydrogenase from Pseudomonas denitrificans ATCC 13867” (PLoS ONE, 2013).

What was measured:
Experiment in all cases: purified protein
[1] = substrate: NC(=O)c1ccc[n+]([C@@H]2O[C@H](COP(=O)(O)OP(=O)(O)OC[C@H]3O[C@@H](n4cnc5c(N)ncnc54)[C@H](O)[C@@H]3O)[C@@H](O)[C@H]2O)c1; conditions: 3 mM 3-hydroxypropionate, NAD+ 0.025-4 mM, 100 mM Tris-HCl pH 9.0, 30 °C, varied: cofactor
[2] = substrate: C[C@@H](CO)C(=O)O; conditions: 2 mM NAD+, 100 mM Tris-HCl pH 9.0, 30 °C
[3] = substrate: CC(N)(CO)C(=O)O; conditions: 2 mM NAD+, 100 mM Tris-HCl pH 9.0, 30 °C
[4] = substrate: O=C(O)CCO; conditions: 2 mM NAD+, 100 mM Tris-HCl pH 9.0, 30 °C
[5] = substrate: COC(=O)[C@@H](C)CO; conditions: 2 mM NAD+, 100 mM Tris-HCl pH 9.0, 30 °C

B1: 3HIBDH-IV (Pseudomonas sp. ATCC 13867) (protein)
chain: MRIGFIGLGNMGGPMAANLLKAGFDLSVFDLSAKAVAAAVALGARALASPAEVARDDVEVIITMLPAAAHVKQVFLGEDGLLANVQPGVLLIDSSTIDPLNAREVSAAALAHGNPMLDAPVSGGTAGAAAGTLTFMVGGEPADFERARPALAAMGKNIVHCGGTGNGQVAKVANNLLLGISMIGVAEAMSLGVKLGMDADVLAGIINTSSGRCWSSEVNNPLTGAPAARGYSGGFGTDLMLKDLGLASEAARQVRQPVLLGALAQQLFQTFSNQGNGQLDFSAIVKLYEQG
[1]
  Km: 164 ± 37 µM
  Vmax: 12.6 µmol/min/mg
  kcat: 6.72 ± 0.126 s⁻¹
  kcat/Km: 42400 ± 10900 M⁻¹ s⁻¹
[2]
  Km: 178 ± 10 µM
  Vmax: 151 µmol/min/mg
  kcat: 80.8 ± 1.1 s⁻¹
  kcat/Km: 455000 ± 33000 M⁻¹ s⁻¹
[3]
  Km: 24180 ± 3169 µM
  Vmax: 12.4 µmol/min/mg
  kcat: 6.62 ± 0.475 s⁻¹
  kcat/Km: 275 ± 16 M⁻¹ s⁻¹
[4]
  Km: 1055 ± 35 µM
  Vmax: 20.2 µmol/min/mg
  kcat: 10.8 ± 0.945 s⁻¹
  kcat/Km: 10200 ± 699 M⁻¹ s⁻¹
[5]
  Km: 25142 ± 1667 µM
  Vmax: 67 µmol/min/mg
  kcat: 35.8 ± 3.3 s⁻¹
  kcat/Km: 1430 ± 231 M⁻¹ s⁻¹
